This is an account of results in patent US20240067758A1 (UCB, published 2024).

Residue numbers refer to the chain shown, from its start. Names may count otherwise. “And” between values parts separate entries of the source, which are not always exact repeats. Equal values may be shown once.

Experiment [1] deals with T1, Human IL22 (human, UniProt Q9GZX6 34-179).
T1 construct: IL22 of the Biacore and cell assays
T1 sequence: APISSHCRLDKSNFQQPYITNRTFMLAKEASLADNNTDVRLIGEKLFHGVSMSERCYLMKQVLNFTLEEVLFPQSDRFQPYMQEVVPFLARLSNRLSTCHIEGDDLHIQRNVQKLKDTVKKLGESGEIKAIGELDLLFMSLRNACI
In words: SPR Biacore T200; Fab captured on anti-rabbit F(ab')2, IL22 titrated 0.6-50 nM. In general terms: SPR reads the build-up and loss of mass on a sensor chip optically.
Method: (§1) HBS-EP+ buffer (10 mM HEPES pH 7.4, 0.15 M NaCl, 3 mM EDTA, 0.05% Surfactant P20, GE Healthcare) was used as the running buffer with a flow rate of 10 μL/min.
(§2) The surface was generated by 2×10 μL injection of 50 mM HCl, interspersed by a 10 μL injection of 5 mM NaOH at flowrate of 10 μL/min. Background subtraction binding curves were analyzed using the Biacore T200 evaluation software following standard procedures. Kinetic parameters were determined from the fitting algorithm.

A further experiment deals with T2, Cynomolgus IL22 (cynomolgus, UniProt G7PHZ7 34-179).
T2 construct: also called Cyno IL22; Cyno IL-22
T2 sequence: T1 sequence with I3V, L32S, H48R, F72L, R95S, R110K
The description is as above.

The target of another experiment is T3, Mouse IL22 (mouse, UniProt Q9JJY9 34-179).
T3 sequence (looked up): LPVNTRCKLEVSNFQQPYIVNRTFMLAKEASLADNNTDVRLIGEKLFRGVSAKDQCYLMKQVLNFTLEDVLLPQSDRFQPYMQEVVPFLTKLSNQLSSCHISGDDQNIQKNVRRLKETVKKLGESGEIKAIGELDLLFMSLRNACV
The description is as above.

Experiment [2] has as its target T1, Human IL22. The experiment is described as follows: SPR (Biacore); Fab variant, human IL22.
In experiment [3] the target is T1, Human IL22. In words: SPR (Biacore); Fab variant, human IL22. The source holds these as a separate data set.
In experiment [4] the target is T1, Human IL22. In words: SPR Biacore 8K; Fab captured on anti-human F(ab')2, human IL22 titrated 617 pM-50 nM; single experiment.
Method: The assay was run on Biacore 8K instrument (GE Healthcare) and BIA (Biomolecular Interaction Analysis) was performed using Biacore 8000 evaluation software Affinipure Goat anti-human IgG-F(ab′)2 fragment specific (Jackson ImmunoResearch) was immobilized on a CM5 Sensor Chip via amine coupling chemistry to a capture level of ˜5000 response units (RUs). HBS-EP+ buffer (10 mM HEPES pH 7.4, 0.15 M NaCl, 3 mM EDTA, 0.05% Surfactant P20, GE Healthcare) was used as the running buffer with a flow rate of 10 μL/min.
The surface was generated by 2×10 μL injections of 50 mM HCl, interspersed by a 5 μL injection of 5 mM NaOH at flowrate of 10 μL/min. Background subtraction binding curves were analyzed using the Insight evaluation software following standard procedures. Kinetic parameters were determined from the fitting algorithm.
Experiment [5] concerns the target T1, Human IL22. The experiment is described as follows: SPR.
Experiment [6] deals with T1, Human IL22. The experiment is described as follows: cell-based or functional assay.
The target in experiment [7] is T1, Human IL22. The experiment is described as follows: cell-based or functional assay. The source holds these as a separate data set.
In experiment [8] the target is T4, Human IL13 (human, UniProt P35225 35-146, limits assumed). In words: cell-based or functional assay.
In experiment [9] the target is T4, Human IL13. In words: cell-based or functional assay. The source holds these as a separate data set.
Experiment [10] deals with T4, Human IL13. The experiment is described as follows: cell-based or functional assay. The source holds these as a separate data set.

Method for Cynomolgus IL22: as §1, §2
Method for Mouse IL22: as §1, §2

B1: Rabbit 11041 Fab (Fab, V domains shown)
VH: QSVEESGGRLVTPGTPLTLTCTVSGFSLSSYAMIWVRQAPGEGLEWIGIIDIDGSTYYASWAKGRFTISRTSTTVDLKITSPTTGDTATYFCARDRFVGVDIFDPWGPGTLVTVSS
VL: AVVLTQTASPVSAPVGGTVTIKCQASEDIYTNLAWYQQKPGQPPKLLIYWASTLASGVPSRFKGSGSGTEFTLTISDLECADAATYYCQACVYGNSADSRYTFGGGTEVVVK
notes: Rabbit Fab
One may read the Kd as the concentration at which binding is half-saturated. The low end stands for a tighter complex, the high end for a looser complex. The term koff denotes the first-order rate constant of dissociation. High values mean fast dissociation, low ones slow dissociation. As usually defined, the kon is the second-order rate constant of association. A high value points to faster complex formation. For the molecule B1, the Kd with Human IL22 [1] worked out at 0.34 nM; with Cynomolgus IL22, 1.1 nM; in the experiment with Mouse IL22 it was 3 nM. Moreover, the koff with Human IL22 [1] is 0.00029 s⁻¹; in the experiment with Cynomolgus IL22, 0.00028 s⁻¹; with Mouse IL22 it was 0.11 s⁻¹. In addition, the kon was found to be 870000 M⁻¹ s⁻¹ with Human IL22 [1], 260000 M⁻¹ s⁻¹ with Cynomolgus IL22 and 3.7e+07 M⁻¹ s⁻¹ with Mouse IL22.

B2: 11070gL1gH13 (Fab, V domains shown)
VH: EVQLQESGPGLVKPSQTLSLTCTVSGFSLTSYSVHWVRQHSGKGLEWMGRMWSDGDTSYNTAFTSRLTISRDTSKSQVSLKLSSVTAADTAVYYCARSLDFYYDTTLAFWGQGTTVTVSS
VL: DIVMTQSPSSVSASVGDRVTITCKASKTISKYLAWYQQKPGKANKLLIYSGSTLQSGTPSRFSGSGSSTDFTLTISSLQPEDFATYYCQQHNEYPLTFGQGTKLEIK
notes: V-regions only; also called 11070gL1gH1 S61T
For the molecule B2, the Kd in the experiment with Human IL22 [2] was found to be 0.0317 nM.

B3: 11070gL7gH16 Fab (Fab, V domains shown)
VH: B2 VH with S41P, M48I, S76N
VL: DIQMTQSPSSVSASVGDRVTITCKASKTISKYLAWYQQKPGKANKLLIYSGSTLQSGVPSRFSGSGSGTDFTLTISSLQPEDFATYYCQQHNEYPLTFGQGTKLEIKR
notes: also called VR11070
The molecule B3 gave a Kd with Human IL22 [2] of 0.0257 nM.

B4: 11070gL1gH1 (Fab, V domains shown)
VH: B2 VH with T61S
VL: B2 VL
notes: V-regions only
For the molecule B4, the Kd in the experiment with Human IL22 [2] is 0.0368 nM.

B5: 11041gL13gH14 Fab (Fab, V domains shown)
VH: EVQLVESGGGLVQPGGSLRLSCAVSGFSLSSYAMIWVRQAPGKGLEWIGIIDIEGSTYYASWAKGRFTISRDNSKNTVYLQMNSLRAEDTAVYYCARDRFVGVDIFDPWGQGTLVTVSS
VL: AVQLTQSPSSLSASVGDRVTITCQASEDIYTNLAWYQQKPGKAPKLLIYWASTLASGVPSRFSGSGSGTDFTLTISSLQPEDFATYYCQASVYGNAADSRYTFGGGTKVEIKR
notes: also called 11041gL6 C91S S96A gH5 D54E
For B5, the Kd in the experiment with Human IL22 [3] and with Human IL22 [4] was 0.0125 nM in each case. In the experiment with Human IL22 [4], this molecule yielded a kon of 1.01e+06 M⁻¹ s⁻¹.

B6: 11041gL6 C91S S96A gH8 D54E (Fab, V domains shown)
VH: B5 VH with N73S, V78L
VL: B5 VL
notes: also called 11041gL13gH15
In the experiment with Human IL22 [3], B6 came in with a Kd of 0.0849 nM.

B7: 11041gL6 C91S gH5 D54E (Fab, V domains shown)
VH: B5 VH
VL: AVQLTQSPSSLSASVGDRVTITCQASEDIYTNLAWYQQKPGKAPKLLIYWASTLASGVPSRFSGSGSGTDFTLTISSLQPEDFATYYCQASVYGNSADSRYTFGGGTKVEIK
notes: also called 11041gL11gH14
The molecule B7 registered a Kd with Human IL22 [3] of 0.0161 nM.

B8: 11041gL1 C91S S96A gH5 D54E (Fab, V domains shown)
VH: B5 VH
VL: B7 VL with Q3V, S96A
notes: heavy chain is the gH5 D54E (gH14) Fab heavy chain; also called 11041gL10gH14
B8 yielded a Kd with Human IL22 [3] of 0.0233 nM.

B9: 11041gL1 C91V gH1 (Fab, V domains shown)
VH: B5 VH with E54D, N73S
VL: B7 VL with Q3V, S91V
notes: V-regions only; also called 11041gL3gH1
Consider B9, for which the “fold increase in binding affinity against 11041gL1gH1” value in the experiment with Human IL22 [5] turned out to be 15 fold. In addition, the dissociation constant Kd with Human IL22 [3] was determined as 0.0419 nM.

B10: 11041gL6 C91S S96A gH11 D54E (Fab, V domains shown)
VH: B5 VH with I48V, V78L
VL: B5 VL
notes: also called 11041gL13gH17
In the experiment with Human IL22 [3], B10 had a Kd of 0.0524 nM.

B11: 11041gL1 C91S gH1 (Fab, V domains shown)
VH: B5 VH with E54D, N73S
VL: B7 VL with Q3V
notes: V-regions only; also called 11041gL2gH1
As for B11, the “fold increase in binding affinity against 11041gL1gH1” value with Human IL22 [5] turned out to be 50 fold. This molecule showed a Kd in the experiment with Human IL22 [3] of 0.0124 nM.

B12: 11041gL7 C91S gH12 D54E (Fab, V domains shown)
VH: B5 VH with G49S, V78L
VL: B7 VL with V2I
notes: V-regions only; also called 11041gL12gH18
With B12, in the experiment with Human IL22 [3], the dissociation constant Kd amounted to 0.0739 nM.

B13: 11041gL6 C91S S96A gH12 D54E (Fab, V domains shown)
VH: B5 VH with G49S, V78L
VL: B5 VL
notes: also called 11041gL13gH18
The molecule B13 returned a Kd in the experiment with Human IL22 [3] of 0.0517 nM.

B14: 11041gL7 C91S gH11 D54E (Fab, V domains shown)
VH: B5 VH with I48V, V78L
VL: B7 VL with V2I
notes: V-regions only; also called 11041gL12gH17
B14 came in with a Kd with Human IL22 [3] of 0.0666 nM.

B15: 11041gL7 C91S gH8 D54E (Fab, V domains shown)
VH: B5 VH with N73S, V78L
VL: B7 VL with V2I
notes: V-regions only; also called 11041gL12gH15
Take B15: in the experiment with Human IL22 [3], the Kd stood at 0.115 nM.

B16: 11041gL7 C91S gH5 D54E (Fab, V domains shown)
VH: B5 VH
VL: B7 VL with V2I
notes: also called 11041gL12gH14
Regarding B16, binding with Human IL22 [3] was characterised by a dissociation constant (Kd) of 0.0293 nM.

B17: 11041gL7 C91S S96A gH5 D54E (Fab, V domains shown)
VH: B5 VH
VL: B7 VL with V2I, S96A
notes: also called 11041gL14gH14
B17 yielded a dissociation constant Kd with Human IL22 [3] of 0.0266 nM.

B18: 11041gL7gH1 (Fab, V domains shown)
VH: B5 VH with E54D, N73S
VL: B7 VL with V2I, S91C
notes: V-regions only
Consider B18, for which binding in the experiment with Human IL22 [3] was put at a Kd of 0.446 nM.

B19: IL13H/IL22K knob in hole bispecific (bispecific antibody, human IgG4 S228P, kappa)
heavy 1: not shown
light 1: AVQLTQSPSSLSASVGDRVTITCQASEDIYTNLAWYQQKPGKAPKLLIYWASTLASGVPSRFSGSGSGTDFTLTISSLQPEDFATYYCQASVYGNAADSRYTFGGGTKVEIKRTVAAPSVFIFPPSDEQLKSGTASVVCLLNNFYPREAKVQWKVDNALQSGNSQESVTEQDSKDSTYSLSSTLTLSKADYEKHKVYACEVTHQGLSSPVTKSFNRGEC
heavy 2: EVQLVQSGAEVKKPGSSVKVSCKASGYSFTSYYIHWVRQAPGQGLEWMGRIGPGSGDINYNEKFKGRATFTVDKSTSTAYMELSSLRSEDTAVYYCARFHYDGADWGQGTLVTVSSASTKGPSVFPLAPCSRSTSESTAALGCLVKDYFPEPVTVSWNSGALTSGVHTFPAVLQSSGLYSLSSVVTVPSSSLGTKTYTCNVDHKPSNTKVDKRVESKYGPPCPPCPAPEFLGGPSVFLFPPKPKDTLMISRTPEVTCVVVDVSQEDPEVQFNWYVDGVEVHNAKTKPREEQFNSTYRVVSVLTVLHQDWLNGKEYKCKVSNKGLPSSIEKTISKAKGQPREPQVYTLPPSQEEMTKNQVSLSCAVKGFYPSDIAVEWESNGQPENNYKTTPPVLDSDGSFFLVSRLTVDKSRWQEGNVFSCSVMHEALHNHYTQKSLSLSLGK
light 2: DIQMTQSPSSLSASVGDRVTITCKASQNINENLDWYQQKPGKAPKLLIYYTDILQTGIPSRFSGSGSGTDYTLTISSLQPEDFATYYCYQYYSGYTFGQGTKLEIKRTVAAPSVFIFPPSDEQLKSGTASVVCLLNNFYPREAKVQWKVDNALQSGNSQESVTEQDSKDSTYSLSSTLTLSKADYEKHKVYACEVTHQGLSSPVTKSFNRGEC
Regarding B19, the “IC50 (M) Geomean; IL22-induced IL-10 release, COLO205 cells; PB8919 (N = 2)” value in the experiment with Human IL22 [6] turned out to be 5.73e-11 M. Moreover, the “IC50 (M) Geomean; IL22-induced IL-10 release, COLO205 cells; PB8842 (N = 2)” value with Human IL22 [7] was determined as 7.13e-11 M. In the experiment with Human IL13 [8], the “IC50 (pM) Geomean, N = 2; STAT-6 reporter assay, HEK-Blue IL-4/IL13 cells; PB8842” value stood at 4.9 pM; the “IC50 (pM), concatenated IC50 values; STAT-6 reporter assay; PB8842” value is 4.6 pM and 5.2 pM. Also, in the experiment with Human IL13 [9], the “IC50 (pM) Geomean, N = 2; STAT-6 reporter assay, HEK-Blue IL-4/IL13 cells; PB8919” value was determined as 2.3 pM; the “IC50 (pM), concatenated IC50 values; STAT-6 reporter assay; PB8919” value was 2 pM and 2.7 pM. Further, in the experiment with Human IL13 [10], the “IC50 (read off the curve), inhibition of eotaxin-3 secretion, primary human keratinocytes stimulated with IL-13 and IL-22 at 100 ng/ml” value is roughly 0.8 nM.
